Measurements as given in paper PMC3531509.

Target: rabbit muscle actin (rabbit) (UniProt P68135)
Assay: ELISA

## Calmodulin-like calcium binding protein EhCaBP3 of Entamoeba histolytica (recombinant, wild type) (natural protein)
  percent inhibition of binding by EGTA: 75%
